According to the supplement of paper PMC10724198:
± gives the standard deviation of the averaged measurements.

How the values were obtained:
Assay in all cases: protein stability index of tFT-peptide fusion (C-terminal peptide) (PSI (0-1 scale)); higher = more stable (slower turnover)
Saccharomyces cerevisiae [1] = conditions: temperature: 30 C
Protocol: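 MPS profiling in S. cerevisiae of the yeast C-terminome library: the last 12 aa of each annotated ORF are fused to the C-terminus of a sfGFP-mCherry timer, after a GGGS linker. Cells are FACS-sorted into 8 mCherry/sfGFP bins and deep-sequenced. PSI runs from 0 (unstable) to 1 (stable); wild type and das1Δ backgrounds, two technical replicates each.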

Saccharomyces cerevisiae [2] = system: Saccharomyces cerevisiae
Protocol: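 MPS profiling in S. cerevisiae of the tFT-X12 degron library: putative degron peptides plus stable controls, 12 aa, fused to the C-terminus of a sfGFP-mCherry timer. Cells are FACS-sorted into 8 mCherry/sfGFP bins and deep-sequenced. PSI runs from 0 (unstable) to 1 (stable). Backgrounds are wild type, das1Δ and doa10Δ at 30 °C, and wild type, das1Δ, cdc34-1 and cdc53-1 at 37 °C; 2-3 technical replicates each.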

Saccharomyces cerevisiae [3] = conditions: genetic background: wild type; temperature: 30 C
[4] = genetic background: das1 deletion
[5] = genetic background: cdc34-1, temperature: 37 C
[6] = genetic background: cdc53-1, temperature: 37 C
[7] = genetic background: das1 deletion, temperature: 30 C
[8] = genetic background: das1 deletion, temperature: 37 C
[9] = genetic background: doa10 deletion, temperature: 30 C
[10] = genetic background: wild type, temperature: 30 C
[11] = genetic background: wild type, temperature: 37 C

Sequence	protein stability index (Saccharomyces cerevisiae [1]; [4])	protein stability index (Saccharomyces cerevisiae [1]; genetic background: wild type)	protein stability index (Saccharomyces cerevisiae [2]; [5])	protein stability index (Saccharomyces cerevisiae [2]; [6])	protein stability index (Saccharomyces cerevisiae [2]; [7])	protein stability index (Saccharomyces cerevisiae [2]; [8])	protein stability index (Saccharomyces cerevisiae [2]; [9])	protein stability index (Saccharomyces cerevisiae [2]; [10])	protein stability index (Saccharomyces cerevisiae [2]; [11])	protein stability index (Saccharomyces cerevisiae [3])
AADPLSNDALFK [BRX1 C-terminal 12 aa]	0.733 ± 0.063	0.737 ± 0.12								
AADRDNKKDEST [XRN1 C-terminal 12 aa]	0.6981 ± 0.0034	0.668 ± 0.057								
AAGKANKQFAKF [RPS11A C-terminal 12 aa]	0.8136 ± 0.0019	0.807 ± 0.042								
AAIPVILAKIKV [SHE4 C-terminal 12 aa]	0.502 ± 0.019	0.56 ± 0.13								
ACYVQLKKSGAF [COX8 C-terminal 12 aa]	0.6966 ± 0.0035	0.669 ± 0.024								
AGATTSRFIPLK [RPS15 C-terminal 12 aa]	0.685 ± 0.023	0.652 ± 0.01								
AGTDKNTHPSSQ [SNT2 C-terminal 12 aa]	0.692 ± 0.0098	0.694 ± 0.019								
AIEEGAGAFLLS [UFD4 C-terminal 12 aa]	0.706 ± 0.03	0.6771 ± 0.0053								
AIFTAFTQVVLI [TOH1 C-terminal 12 aa]	0.4858 ± 0.0044	0.4983 ± 0.00094								
AIHLEAVSLVDC [CIS3 C-terminal 12 aa]	0.599 ± 0.011	0.611 ± 0.024								
AKELISAIFFGE [TAF6 C-terminal 12 aa]	0.698 ± 0.057	0.6614 ± 0.0044								
AKGLAKTEIANQ [GIR2 C-terminal 12 aa]	0.686 ± 0.018	0.656 ± 0.013								
AKPAYHWQTRYR [KIN3 C-terminal 12 aa]	0.703 ± 0.021	0.665 ± 0.017								
AKVYFLGRDSSI [NDE1 C-terminal 12 aa]	0.708 ± 0.016	0.741 ± 0.076								
ALENENKRKAKL [CAT2 C-terminal 12 aa]	0.79 ± 0.015	0.798 ± 0.11								
ALGLAGAVMMLL [SPI1 C-terminal 12 aa]	0.693 ± 0.013	0.746 ± 0.025								
ALQKQIKNALPC [PTP2 C-terminal 12 aa]	0.694 ± 0.024	0.69 ± 0.029								
ALSCLGHSKIFI [YML094C-A C-terminal 12 aa]	0.7082 ± 0.0041	0.706 ± 0.012								
ALSKDGIYTITN [PAU13 C-terminal 12 aa]	0.706 ± 0.027	0.679 ± 0.014								
AMDYAISIENIV [RPN12 C-terminal 12 aa]	0.665 ± 0.015	0.646 ± 0.015								
ANFECSSWKFAS [EFM5 C-terminal 12 aa]	0.7167 ± 0.0049	0.646 ± 0.0085								
APPKLNNSSESE [STE23 C-terminal 12 aa]	0.681 ± 0.0074	0.674 ± 0.0091								
AQGGFAQWATGQ [APS3 C-terminal 12 aa]	0.718 ± 0.0089	0.683 ± 0.04								
AQNFILFHDYLH [YLR365W C-terminal 12 aa]	0.698 ± 0.012	0.711 ± 0.032								
ASFVEVNAEVFL [FRS1 C-terminal 12 aa]	0.7129 ± 0.0051	0.7111 ± 0.0032								
ASNGVRLSEIGW [SNZ1 C-terminal 12 aa]	0.699 ± 0.011	0.694 ± 0.027								
ASVIPGGCLGNL [ZPS1 C-terminal 12 aa]	0.703 ± 0.018	0.685 ± 0.018								

Sequence	protein stability index (Saccharomyces cerevisiae [1]; [4])	protein stability index (Saccharomyces cerevisiae [1]; genetic background: wild type)	protein stability index (Saccharomyces cerevisiae [2]; [5])	protein stability index (Saccharomyces cerevisiae [2]; [6])	protein stability index (Saccharomyces cerevisiae [2]; [7])	protein stability index (Saccharomyces cerevisiae [2]; [8])	protein stability index (Saccharomyces cerevisiae [2]; [9])	protein stability index (Saccharomyces cerevisiae [2]; [10])	protein stability index (Saccharomyces cerevisiae [2]; [11])	protein stability index (Saccharomyces cerevisiae [3])
VYVRYYVRVVVI			0.0256 ± 0.0012	0.0406 ± 0.00046	0.0781 ± 0.04	0.167 ± 0.024	0.0369 ± 0.0049	0.046 ± 0.016	0.0659 ± 0.0096	0.115 ± 0.012
WCFFFVGCCCFG			0.557 ± 0.044	0.59 ± 0.03	0.462 ± 0.034	0.5249 ± 0.004	0.479 ± 0.0084	0.481 ± 0.031	0.537 ± 0.013	0.479 ± 0.0056
WCFGSLLIRFSL			0.416 ± 0.057	0.446 ± 0.016	0.453 ± 0.04	0.5548 ± 0.0037	0.5049 ± 0.00066	0.411 ± 0.0096	0.516 ± 0.013	0.458 ± 0.024
WDLYFSVVYRVV			0.35 ± 0.04	0.484 ± 0.017	0.403 ± 0.015	0.491 ± 0.017	0.0435 ± 0.021	0.0544 ± 0.0073	0.093 ± 0.0024	0.114 ± 0.0017
WFFPVSPPVMAS			0.181 ± 0.027	0.1945 ± 0.00051	0.202 ± 0.032	0.3 ± 0.013	0.175 ± 0.004	0.211 ± 0.026	0.265 ± 0.0075	0.288 ± 0.013
WFLFVLCAWGFF			0.295 ± 0.026	0.339 ± 0.0033	0.263 ± 0.013	0.374 ± 0.039	0.263 ± 0.014	0.241 ± 0.012	0.3042 ± 0.00084	0.135 ± 0.0012
WFLLSLSSFVSS			0.427 ± 0.03	0.415 ± 0.11	0.363 ± 0.023	0.469 ± 0.0061	0.358 ± 0.037	0.351 ± 0.0038	0.4555 ± 0.00088	0.427 ± 0.015
WFSMSRLWVFYS			0.415 ± 0.043	0.637 ± 0.018	0.619 ± 0.028	0.729 ± 0.045	0.1047 ± 0.00079	0.0847 ± 0.027	0.106 ± 0.024	0.217 ± 0.082
WFSRCVSLGLCW			0.2808 ± 0.0017	0.3093 ± 0.0024	0.29 ± 0.019	0.398 ± 0.018	0.274 ± 0.012	0.302 ± 0.029	0.363 ± 0.017	0.4176 ± 0.0036
WFSVRQLVFVSG			0.119 ± 0.011	0.146 ± 0.018	0.163 ± 0.028	0.236 ± 0.0094	0.124 ± 0.0015	0.163 ± 0.019	0.218 ± 0.0069	0.218 ± 0.014
WISVRIFISCFF			0.177 ± 0.0059	0.269 ± 0.02	0.191 ± 0.024	0.318 ± 0.0052	0.192 ± 0.0026	0.191 ± 0.035	0.271 ± 0.0047	0.267 ± 0.022
WLCLAVLVRFPC			0.273 ± 0.0054	0.274 ± 0.018	0.25 ± 0.043	0.3989 ± 0.0019	0.2621 ± 0.0017	0.248 ± 0.017	0.369 ± 0.018	0.3532 ± 0.0026
WQIGIYILQGLA			0.271 ± 0.03	0.316 ± 0.0064	0.242 ± 0.04	0.389 ± 0.018	0.146 ± 0.011	0.163 ± 0.049	0.262 ± 0.015	0.256 ± 0.023
WSCVGLWGRFCC			0.663 ± 0.033	0.748 ± 0.018	0.637 ± 0.011	0.76 ± 0.013	0.267 ± 0.011	0.299 ± 0.0093	0.57 ± 0.0094	0.448 ± 0.036
WSISFGLLVCWV			0.27 ± 0.045	0.322 ± 0.0049	0.199 ± 0.019	0.42 ± 0.013	0.154 ± 0.012	0.191 ± 0.016	0.379 ± 0.066	0.233 ± 0.039
WVFVVWFVFVVG			0.242 ± 0.022	0.3112 ± 0.00051	0.241 ± 0.022	0.374 ± 0.021	0.202 ± 0.013	0.215 ± 0.02	0.356 ± 0.03	0.322 ± 0.016
WVGGVLLSVVGG			0.158 ± 0.014	0.413 ± 0.041	0.213 ± 0.028	0.349 ± 0.0084	0.179 ± 0.01	0.192 ± 0.029	0.399 ± 0.059	0.245 ± 0.014
WVRLGRSWTTVG			0.68 ± 0.054	0.736 ± 0.013	0.686 ± 0.035	0.754 ± 0.013	0.22 ± 0.034	0.283 ± 0.016	0.549 ± 0.0057	0.422 ± 0.029
WVRLWGVLEAQG			0.349 ± 0.013	0.445 ± 0.022	0.334 ± 0.028	0.369 ± 0.0011	0.344 ± 0.028	0.332 ± 0.012	0.3675 ± 0.0028	0.3627 ± 0.0029
WVSFYLLFFFSF			0.459 ± 0.007	0.4959 ± 0.0028	0.42 ± 0.044	0.539 ± 0.015	0.395 ± 0.0067	0.395 ± 0.017	0.5 ± 0.015	0.483 ± 0.023
YFFFPILCFCFF			0.439 ± 0.03	0.43 ± 0.012	0.38 ± 0.028	0.479 ± 0.0088	0.429 ± 0.028	0.381 ± 0.018	0.437 ± 0.0084	0.419 ± 0.047
YFLFLRLVFLFF			0.217 ± 0.015	0.222 ± 0.032	0.233 ± 0.018	0.3874 ± 0.0034	0.186 ± 0.013	0.178 ± 0.018	0.257 ± 0.0034	0.23 ± 0.032
YILLRWVNLSCL			0.524 ± 0.012	0.587 ± 0.013	0.488 ± 0.022	0.645 ± 0.0099	0.149 ± 0.017	0.156 ± 0.021	0.283 ± 0.0069	0.236 ± 0.062
YPVAWSSAIIIR			0.438 ± 0.041	0.4531 ± 0.0036	0.362 ± 0.022	0.5314 ± 0.0037	0.423 ± 0.018	0.371 ± 0.017	0.506 ± 0.0061	0.435 ± 0.025
YQKIARVSLAVS			0.466 ± 0.015	0.512 ± 0.02	0.347 ± 0.038	0.526 ± 0.014	0.27 ± 0.021	0.328 ± 0.025	0.4779 ± 0.0035	0.424 ± 0.015
YVIGLLFVVSGV			0.265 ± 0.013	0.366 ± 0.025	0.258 ± 0.044	0.465 ± 0.029	0.229 ± 0.0076	0.251 ± 0.033	0.385 ± 0.03	0.39 ± 0.0085
YYKGGYLYLRLS			0.398 ± 0.031	0.4395 ± 0.0037	0.454 ± 0.029	0.607 ± 0.035	0.171 ± 0.0093	0.15 ± 0.018	0.316 ± 0.036	0.253 ± 0.015
